Test results: patent publication US20210380680A1 (ZLLP, published 2021)
Where two headings read alike, the source gives them in different places.

Experiments:
[1] = target: T1, human Claudin 18.2 (CLDN18.2) (human, UniProt P56856-2 1-261); experiment: cell-based or functional assay
[2] = target: T1, human Claudin 18.2 (CLDN18.2); experiment: cell-based or functional assay; remark: listed apart in the source
[3] = target: T1, human Claudin 18.2 (CLDN18.2); experiment: cell-based or functional assay; remark: listed apart in the source
[4] = target: T1, human Claudin 18.2 (CLDN18.2); experiment: FACS on CHO-CLDN18.2 cells
[5] = target: T1, human Claudin 18.2 (CLDN18.2); experiment: FACS on CHO-CLDN18.2 cells; remark: listed apart in the source
[6] = target: T1, human Claudin 18.2 (CLDN18.2); experiment: FACS on CHO-CLDN18.2 cells; remark: listed apart in the source
[7] = target: T2, CLDN18.2 endogenously expressed on SNU620 gastric cancer cells (UniProt P56856-2 1-261, limits assumed); experiment: FACS Exp. 3, SNU620 cells
T2 construct: whole, on cells; also called SU620

[8] = target: T1, human Claudin 18.2 (CLDN18.2); experiment: FACS Exp. 1, MFI ratio CHO-18.2 over CHO-18.1
[9] = target: T1, human Claudin 18.2 (CLDN18.2); experiment: FACS Exp. 2, MFI ratio CHO-18.2 over CHO-18.1

Binder	% ADCC @ 6.67 nM, NCI-N87-CLDN18.2, FcR-TANK [1] [%]	ADCC EC50, NCI-N87-CLDN18.2, FcR-TANK [1] [nM]	ADCC EC50, NUGC4-CLDN18.2, PBMC [2] [nM]	CDC EC50, human serum, CHO-CLDN18.2 [3] [nM]	EC50 [4] [nM]	EC50 [5] [nM]	EC50 [6] [nM]	MFI_SNU620 (@30 ug/ml) [7] [MFI]	MFI_CHO-18.2/CHO-18.1 (@30 ug/ml) [8]	MFI_CHO-18.2/CHO-18.1 (@30 ug/ml) [9]	% specific cytotoxicity @ 6.67 nM, NUGC4-CLDN18.2, PBMC [2] [%]
413H9F8-cp1 (antibody, V domains shown, humanized IgG; constant regions not specified) VH: EVQLVESGGGLVQPGGSLRLSCAASGFTFSSFGMHWVRQAPGKGLEWVSYISSGSSPIYYVDKLKGRFTISRDNAKNSLYLQMNSLRAEDTAVYYCARAGYAVRNALDYWGQGTLVTVSS VL: EIVMTQSPPTLSLSPGERVTLSCKSSQSLLNVGNQKNYLAWYQQKPGQAPRLLIYGASTRESGIPARFSGSGSGTDFTLTISSLQPEDFAVYYCQNDLFYPLTFGGGTKVEIK	13.3	0.44	7.18	1.66	2.6						31.5
364D1A7-H1L1 (antibody, V domains shown, humanized IgG; constant regions not specified) VH: EVQLVESGGGLVQPGGSLRLSCAASGFTFSSFGMHWVRQAPGKGLEWVSYISSGSGSIYYADTVKGRFTISRDNAKNSLYLQMNSLRAEDTAVYYCATSYYYGNALEYWGQGTTVTVSS VL: DIVMTQSPDSLAVSLGERATINCKSSQSLFNVGNQKNYLTWYQQKPGQPPKLLIYWASTRKSGVPDRFSGSGSGTDFTLTISSLQAEDVAVYYCQNVYSYPLTFGGGTKVEIK	13.5	0.4	13.3	1.48		3.5					26.7
413H9F8-H1L3 (antibody, V domains shown, humanized IgG; constant regions not specified) VH: EVQLVESGGGLVQPGGSLRLSCAASGFTFSSFGMHWVRQAPGKGLEWVSYISSGSSPIYYVDKLKGRFTISRDNAKNSLYLQMNSLRAEDTAVYYCARAGYAVRNALDYWGQGTLVTVSS VL: DIVMTQSPDSLAVSLGERATINCKSSQSLLNVGNQKNYLAWYQQKPGQPPKLLIYGASTRESGVPDRFIGSGSGTDFTLTISSLQAEDVAVYFCQNDLFYPLTFGGGTKVEIK	16.3	0.37	4.38	1.07			2.38				34.6
364D1A7-H3L1 (antibody, V domains shown, humanized IgG; constant regions not specified) VH: EVQLVESGGGLVQPGGSLRLSCAASGFTFSSFGMHWVRQAPGKGLEWVAYISSGSGSIYYADTVKGRFTLSRDNPKNSLYLQMNSLRAEDTAVYYCATSYYYGNALEYWGQGTTVTVSS VL: DIVMTQSPDSLAVSLGERATINCKSSQSLFNVGNQKNYLTWYQQKPGQPPKLLIYWASTRKSGVPDRFSGSGSGTDFTLTISSLQAEDVAVYYCQNVYSYPLTFGGGTKVEIK	10.8	0.41	11.3	1.28		4.22					26.2
413H9F8-H2L1 (antibody, V domains shown, humanized IgG; constant regions not specified) VH: EVQLVESGGGLVQPGGSLRLSCAASGFTFSSFGMHWVRQAPGKGLEWVAYISSGSSPIYYVDKLKGRFTISRDNAKNSLYLQMNSLRAEDTAVYYCARAGYAVRNALDYWGQGTLVTVSS VL: DIVMTQSPDSLAVSLGERATINCKSSQSLLNVGNQKNYLAWYQQKPGQPPKLLIYGASTRESGVPDRFSGSGSGTDFTLTISSLQAEDVAVYYCQNDLFYPLTFGGGTKVEIK	14.1	0.31	5.97	1.06			2.43				34.3
413H9F8-H1L1 (antibody, V domains shown, humanized IgG; constant regions not specified) VH: EVQLVESGGGLVQPGGSLRLSCAASGFTFSSFGMHWVRQAPGKGLEWVSYISSGSSPIYYVDKLKGRFTISRDNAKNSLYLQMNSLRAEDTAVYYCARAGYAVRNALDYWGQGTLVTVSS VL: DIVMTQSPDSLAVSLGERATINCKSSQSLLNVGNQKNYLAWYQQKPGQPPKLLIYGASTRESGVPDRFSGSGSGTDFTLTISSLQAEDVAVYYCQNDLFYPLTFGGGTKVEIK	15.1	0.47	8.98	0.78			2.31				27
hz282-19 (antibody, V domains shown, humanized IgG; constant regions not specified) VH: QVQLQESGPGLVKPSETLSLTCTVSGFSLTSYNVYWIRQPPGKGLEWIGVIWNTGATRYNSALKSRVTISKDTSKSQVSLKLSSVTAADTAVYYCARDSAMPAIPFAYWGQGTLVTVSS VL: DIVMTQSPSSLSASVGDRVTINCKSSQSLFGSVRQKNYLAWYQQKPGKSPKLLIYLASTRESGVPDRFSGSGSGTDFTLTISSLQPEDFAKYYCQQYYDIPWTFGGGTKVEIK								1310	812	1010	

Now from value to binder, other results behind:

% ADCC @ 6.67 nM, NCI-N87-CLDN18.2, FcR-TANK [1] [%]	ADCC EC50, NCI-N87-CLDN18.2, FcR-TANK [1] [nM]	ADCC EC50, NUGC4-CLDN18.2, PBMC [2] [nM]	CDC EC50, human serum, CHO-CLDN18.2 [3] [nM]	EC50 [4] [nM]	EC50 [5] [nM]	EC50 [6] [nM]	MFI_SNU620 (@30 ug/ml) [7] [MFI]	MFI_CHO-18.2/CHO-18.1 (@30 ug/ml) [8]	MFI_CHO-18.2/CHO-18.1 (@30 ug/ml) [9]	Binder	% specific cytotoxicity @ 6.67 nM, NUGC4-CLDN18.2, PBMC [2] [%]
							1150	1100	1670	hz282-3 (antibody, V domains shown, humanized IgG; constant regions not specified) VH: QVQLQESGPGLVKPSETLSLTCTVSGFSLTSYNVYWIRQPPGKGLEWIGVIWNTGATRYNSALKSRVTISKDTSKSQVSLKLSSVTAADTAVYYCARDSAMPAIPFAYWGQGTLVTVSS VL: DIVMTQSPDSLAVSLGERATINCKSSQSLFGSVRQKNYLAWYQQKPGQPPKLLIYLASTRESGVPDRFSGSGSGTDFTLTISSLQAEDVAVYYCQQYYDIPWTFGGGTKVEIK	
							1220	1230	1940	hz282-12 (antibody, V domains shown, humanized IgG; constant regions not specified) VH: QVQLQESGPGLVKPSETLSLTCTVAGFSLTSYNVYWIRQPPGKGLEWIGVIWNTGATRYNSALKSRVTISKDTSKSQVSLKLSSVTAADTAVYYCARDSAMPAIPFAYWGQGTLVTVSS VL: DIQMTQSPSSLSASVGDRVTITCKSSQSLFGSVRQKNYLAWYQQKPGKAPKLLIYLASTRESGVPSRFSGSGSGTDFTLTISSLQPEDFATYYCQQYYDIPWTFGGGTKVEIK	
				3.68	2.75	3.17	1340	1190	2000	hz282-11 (antibody, V domains shown, humanized IgG; constant regions not specified; also called humanized 282A12(T62A) (hz282-11)) VH: QVQLQESGPGLVKPSETLSLTCTVSGFSLTSYNVYWIRQPPGKGLEWIGVIWNTGATRYNSALKSRVTISKDTSKSQVSLKLSSVTAADTAVYYCARDSAMPAIPFAYWGQGTLVTVSS VL: DIQMTQSPSSLSASVGDRVTITCKSSQSLFGSVRQKNYLAWYQQKPGKAPKLLIYLASTRESGVPSRFSGSGSGTDFTLTISSLQPEDFATYYCQQYYDIPWTFGGGTKVEIK	
							1190	960	1610	hz282-8 (antibody, V domains shown, humanized IgG; constant regions not specified) VH: QVQLQESGPGLVKPSETLSLTCTVAGFSLTSYNVYWIRQPPGKGLEWIGVIWNTGATRYNSALKSRVTISKDTSKSQVSLKLSSVTAADTAVYYCARDSAMPAIPFAYWGQGTLVTVSS VL: DIVMTQSPDSLAVSLGERATINCKSSQSLFGSVRQKNYLAWYQQKPGQSPKLLIYLASTRESGVPDRFSGSGSGTDFTLTISSLQAEDVAKYYCQQYYDIPWTFGGGTKVEIK	
							1240	981	987	hz282-20 (antibody, V domains shown, humanized IgG; constant regions not specified) VH: QVQLQESGPGLVKPSETLSLTCTVAGFSLTSYNVYWIRQPPGKGLEWIGVIWNTGATRYNSALKSRVTISKDTSKSQVSLKLSSVTAADTAVYYCARDSAMPAIPFAYWGQGTLVTVSS VL: DIVMTQSPSSLSASVGDRVTINCKSSQSLFGSVRQKNYLAWYQQKPGKSPKLLIYLASTRESGVPDRFSGSGSGTDFTLTISSLQPEDFAKYYCQQYYDIPWTFGGGTKVEIK	
							1080	1240	2540	hz282-4 (antibody, V domains shown, humanized IgG; constant regions not specified) VH: QVQLQESGPGLVKPSETLSLTCTVAGFSLTSYNVYWIRQPPGKGLEWIGVIWNTGATRYNSALKSRVTISKDTSKSQVSLKLSSVTAADTAVYYCARDSAMPAIPFAYWGQGTLVTVSS VL: DIVMTQSPDSLAVSLGERATINCKSSQSLFGSVRQKNYLAWYQQKPGQPPKLLIYLASTRESGVPDRFSGSGSGTDFTLTISSLQAEDVAVYYCQQYYDIPWTFGGGTKVEIK	
							1310	808	1500	hz282-10 (antibody, V domains shown, humanized IgG; constant regions not specified) VH: QVQLQESGPGLVKPSETLSLTCTVSGFSLTSYNVYWIRQPPGKGLEWIGVIWNTGATRYNSALKSRVTISKDTSKNQVSLKLSSVTAADTAVYYCARDSAMPAIPFAYWGQGTLVTVSS VL: DIQMTQSPSSLSASVGDRVTITCKSSQSLFGSVRQKNYLAWYQQKPGKAPKLLIYLASTRESGVPSRFSGSGSGTDFTLTISSLQPEDFATYYCQQYYDIPWTFGGGTKVEIK	
							1230	1380	2020	hz282-15 (antibody, V domains shown, humanized IgG; constant regions not specified) VH: QVQLQESGPGLVKPSETLSLTCTVSGFSLTSYNVYWIRQPPGKGLEWIGVIWNTGATRYNSALKSRVTISKDTSKSQVSLKLSSVTAADTAVYYCARDSAMPAIPFAYWGQGTLVTVSS VL: DIQMTQSPSSLSASVGDRVTITCKSSQSLFGSVRQKNYLAWYQQKPGKSPKLLIYLASTRESGVPDRFSGSGSGTDFTLTISSLQPEDFAKYYCQQYYDIPWTFGGGTKVEIK	
